Target: anti-CD19 CAR having an scFv derived from FMC63 (expressed on T cells) (Mus musculus (Mouse), UniProt P01644 1-106)
Test: cell-based or functional assay

Chain of anti-CD19 CAR having an scFv derived from FMC63 (expressed on T cells) (VH, as listed by the source, chain 1 of 2): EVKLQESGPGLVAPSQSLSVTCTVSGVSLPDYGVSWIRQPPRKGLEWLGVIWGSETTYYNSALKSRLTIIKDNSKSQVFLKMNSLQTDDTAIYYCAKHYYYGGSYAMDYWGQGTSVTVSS
Chain of anti-CD19 CAR having an scFv derived from FMC63 (expressed on T cells) (P01644 other isoform, or with tags, fused parts or gaps, chain 2 of 2): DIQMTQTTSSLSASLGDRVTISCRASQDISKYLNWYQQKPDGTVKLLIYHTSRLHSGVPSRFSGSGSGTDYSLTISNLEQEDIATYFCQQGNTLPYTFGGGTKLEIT

fold expansion of CAR-expressing (EGFRt+) CD4+ T cells cultured alone with anti-ID B-1 conjugated beads, up to 9 days: > 60 fold
B1: Anti-ID B-1 (FMC63-derived scFv-specific anti-idiotype antibody) (antibody, mouse IgG2a, kappa, V domains shown)
VH: EVQLQQSGPELVKPGASVKMSCKASGYTFTDYYMKWVKQCHGKSLEWIGDINPNNGGTDYNQNFKGKATLTVDKSSSTAYMQLNSLTSEDSAVYYCAREGNNYGSRDAMDYWGQGTSVTVSS
VL: QIVLTQSPALMSASPGEKVTMTCSASSGVIYMYWYQQKPRSSPKPWIYLTSNLASGVPARFSGSGSGTSYSLTISSMEAEDAATYYCQQWSSNPLTFGAGTKLELKR
